Results: patent publication US20050026828A1

B1: Met PK1 (ligand)
chain: MAVITGACERDVQCGAGTCCAISLWLRGLRMCTPLGREGEECHPGSHKVPFFRKRKHHTCPCLPNLLCSRFPDGRYRCSMDLKNINF
B2: MV PK1 (ligand)
chain: MVITGACERDVQCGAGTCCAISLWLRGLRMCTPLGREGEECHPGSHKVPFFRKRKHHTCPCLPNLLCSRFPDGRYRCSMDLKNINF

Assays:
[1] = target: human prokineticin receptor 1 (human) (UniProt Q8TCW9); assay: cell-based or functional assay
[2] = target: human prokineticin receptor 2 (human) (UniProt Q8NFJ6); assay: cell-based or functional assay
Chain of UniProt Q8NFJ6 (Q8NFJ6 whole entry): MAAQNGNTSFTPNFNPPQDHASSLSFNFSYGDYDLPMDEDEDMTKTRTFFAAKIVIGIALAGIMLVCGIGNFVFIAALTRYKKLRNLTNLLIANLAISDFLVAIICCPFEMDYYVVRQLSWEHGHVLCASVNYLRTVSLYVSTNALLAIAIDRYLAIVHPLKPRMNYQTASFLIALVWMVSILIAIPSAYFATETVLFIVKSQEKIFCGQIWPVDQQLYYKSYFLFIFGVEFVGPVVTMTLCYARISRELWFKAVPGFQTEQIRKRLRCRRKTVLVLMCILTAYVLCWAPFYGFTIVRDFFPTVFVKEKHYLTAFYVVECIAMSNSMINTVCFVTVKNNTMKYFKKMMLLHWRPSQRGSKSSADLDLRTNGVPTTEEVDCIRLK

Chain of UniProt Q8TCW9 (Q8TCW9 whole entry I255M/S256T): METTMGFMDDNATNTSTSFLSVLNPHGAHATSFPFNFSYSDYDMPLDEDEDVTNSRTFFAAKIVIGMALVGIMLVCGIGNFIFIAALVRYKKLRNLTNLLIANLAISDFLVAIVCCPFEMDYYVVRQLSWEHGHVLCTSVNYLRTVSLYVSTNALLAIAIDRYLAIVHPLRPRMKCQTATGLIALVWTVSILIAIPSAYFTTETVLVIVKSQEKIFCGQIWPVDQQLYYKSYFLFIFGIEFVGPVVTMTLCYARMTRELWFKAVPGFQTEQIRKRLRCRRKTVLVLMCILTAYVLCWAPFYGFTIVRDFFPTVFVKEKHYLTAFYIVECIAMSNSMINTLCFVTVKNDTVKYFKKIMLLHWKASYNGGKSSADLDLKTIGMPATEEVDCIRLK

| Binder | Antagonistic Activity of PK mutants (Calcium Mobilization Assay), ligand PK1 [1] | Antagonistic Activity of PK mutants (Calcium Mobilization Assay), ligand PK2 [1] | Antagonistic Activity of PK mutants (Calcium Mobilization Assay), ligand PK1 [2] | Antagonistic Activity of PK mutants (Calcium Mobilization Assay), ligand PK2 [2] |
| --- | --- | --- | --- | --- |
| B1 | 9 nM | 90 nM | 15 nM | 30 nM |
| B2 | 6 nM | 110 nM | 16 nM | 29 nM |
